Reference: publication doi:10.1101/2024.06.20.599739, “Design of linear and cyclic peptide binders of different lengths from protein sequence information” (bioRxiv, 2024)
Where “and” joins values, the source holds several entries; their conditions need not be identical. Identical values can stand only once.

Target: T1, MBP-8xHis-1SCC (semi-synthetic Ribonuclease, PDB ID 1SSC) (UniProt P61823 27-138)
T1 construct: also called psfRNAseA; psfRNAseA-c001; source: E. coli BL21 (DE3) T1R, purified (IMAC, size exclusion chromatography)
T1 sequence: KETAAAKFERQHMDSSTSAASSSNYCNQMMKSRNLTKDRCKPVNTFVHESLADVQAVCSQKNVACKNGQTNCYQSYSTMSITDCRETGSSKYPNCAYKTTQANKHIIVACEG
Test: SPR; MBP-8xHis-1SCC immobilised to about 12000 RU by amine coupling (EDC/NHS) on a Series S CM5 chip, Biacore 8K; peptides as analytes, single-cycle kinetics (2, 10, 50 μM; or 3.125-50 μM in five steps); 25 °C; HBS-P+ (10 mM HEPES pH 7.4, 150 mM NaCl, 0.05% Tween-20); 30 μL/min, 120 s association, 1800 s dissociation; 1:1 binding model
Conditions: both partners purified

B1: known peptide binder (11 residues) of the semi-synthetic Ribonuclease (peptide)
peptide: PYVPVHFDASV
notes: C-terminal stretch of ribonuclease A, the peptide chain of PDB 1SSC; also called wildtype (WT) linear peptide; wild-type peptide; source: synthetic peptide
Kd: 35 nM and 25 nM
